Data published in PMC8961635.
One block for each substance: values may come before it.

How the values were obtained:
[1] = target: human mitoNEET (human); assay: SEC-MALS; holo-form ([2Fe-2S] cluster bound); 100 µL at ~2 mg·mL^−1 injected on Superdex 200 increase 10/300 GL, 0.5 mL·min^−1, 50 mM sodium phosphate pH 7.5, 50 mM NaCl, 10 mM DTT; monomer or dimer
[2] = target: CyuA from Methanococcus maripaludis (Methanococcus maripaludis); assay: SEC-MALS; holo-form ([4Fe-4S] cluster reconstituted anaerobically; analysed aerobically immediately after thawing); 100 µL at ~2 mg·mL^−1 injected on Superdex 200 increase 10/300 GL, 0.5 mL·min^−1, 25 mM HEPES pH 7.5, 300 mM NaCl, 5 mM DTT; monomer or dimer
[3] = target: CyuA from Methanococcus maripaludis (Methanococcus maripaludis); assay: SEC-MALS; apo-form (as-purified protein, <5% cluster); 100 µL at ~2 mg·mL^−1 injected on Superdex 200 increase 10/300 GL, 0.5 mL·min^−1, 25 mM HEPES pH 7.5, 300 mM NaCl, 5 mM DTT; monomer or dimer
[4] = target: human CISD2 (human); assay: SEC-MALS; holo-form ([2Fe-2S] cluster bound); 100 µL at ~2 mg·mL^−1 injected on Superdex 200 increase 10/300 GL, 0.5 mL·min^−1, 50 mM sodium phosphate pH 7.5, 50 mM NaCl, 10 mM DTT; monomer or dimer
[5] = target: LarE from Methanococcus maripaludis (Methanococcus maripaludis); assay: SEC-MALS; holo-form ([4Fe-4S] cluster reconstituted anaerobically; analysed aerobically immediately after thawing); 100 µL at ~2 mg·mL^−1 injected on Superdex 200 increase 10/300 GL, 0.5 mL·min^−1, 25 mM HEPES pH 7.5, 300 mM NaCl, 5 mM DTT; monomer or dimer
[6] = target: LarE from Methanococcus maripaludis (Methanococcus maripaludis); assay: SEC-MALS; apo-form (as-purified protein, <5% cluster); 100 µL at ~2 mg·mL^−1 injected on Superdex 200 increase 10/300 GL, 0.5 mL·min^−1, 25 mM HEPES pH 7.5, 300 mM NaCl, 5 mM DTT; monomer or dimer

stoichiometry N [1]: 2
Substance: human mitoNEET (domain or fragment)

stoichiometry N [2]: 2
stoichiometry N [3]: 2
Substance: CyuA from Methanococcus maripaludis (enzyme)

stoichiometry N [4]: 2
Substance: human CISD2 (domain or fragment)

stoichiometry N [5]: 2
stoichiometry N [6]: 2
Substance: LarE from Methanococcus maripaludis (enzyme)
